In patent US20120252742A1:
Values belong to the substance of their own block, whether it stands above or below them.

How the values were obtained:
[1] = target: SIY peptide on K^b of antigen presenting cells (T2-K^b); test: cell-based or functional assay
[2] = target: SL9 (HIV-Gag)/HLA.A2 streptavidin:phycoerythrin tetramer (human immunodeficiency virus; human); test: cell-based or functional assay
[3] = target: SL9 peptide on HLA.A2 of peptide-loaded HLA.A2+ cells (T2) (human immunodeficiency virus; human); test: flow cytometry: T2 cells loaded with 10 uM SL9, biotinylated scTCR, streptavidin:PE
[4] = target: SL9 peptide on HLA.A2 of peptide-loaded HLA.A2+ cells (T2) (human immunodeficiency virus; human); test: flow cytometry: T2 cells loaded with 10 uM SL9, titration of biotinylated scTCR, streptavidin:PE
[5] = target: SL9 peptide on HLA.A2 of peptide-loaded HLA.A2+ cells (T2) (human immunodeficiency virus; human); test: flow cytometry: SL9 peptide titrated on T2 cells, 100 nM biotinylated scTCR; the reference value is from the literature
[6] = target: SIY peptide on H-2Kb (mouse); test: IL-2 release; transduced 58-/- cells, SIY peptide on T2-K^b (FIG. 17); fusion: CD28, CD3ζ, LCK
[7] = target: SIY peptide on H-2Kb (mouse); test: value stated in the legend of FIG. 16; method not given
[8] = target: human immunodeficiency virus (HIV) Gag protein (SL9) peptide on HLA-A*02:01 (human); test: SL9 peptide titrated on T2 cells, stained with 100 nM multi-biotinylated scTCR (FIG. 11C); soluble, other
[9] = target: SIY peptide on H-2Kb (mouse); test: value cited from Chervin et al. 2009 (ref 18); method not given

IL-2 release, lowest SIY peptide concentration that activates [1]: 1 nM
Substance: m33 scTCR (Vα-linker-Vβ) fused to CD28, CD3ζ, LCK, on the surface of 58-/- T cell hybridoma

T cell activation by plate-bound pepMHC tetramer, EC50 [2]: 4 nM
Substance: 868-Z11 scTCR (Vβ-linker-Vα) fused to CD28, CD3ζ, LCK, on the surface of transduced T cells

lowest scTCR concentration at which peptide loaded cells were detected [3]: 0.1 nM
EC50 [4]: 4 nM
fold improvement in limit of detection relative to the full-length 868 TCR variant described by Varela-Rohena et al [5]: 5 fold
Substance: soluble, biotinylated 868-Z11 single-chain TCR expressed in E. coli (pET28a) and refolded

lowest activating peptide concentration [6]: 1 nM
Substance: m33 scTCR with 2C-T7 stabilizing mutations

Kd [7]: 30000 nM
Substance: 2C (full-length αβ TCR)

lowest SL9 peptide concentration detected [8]: 10 nM
Substance: 868-Z11

Kd [9]: 16 nM
Kd [7]: 30 nM
Substance: m33 (full-length αβ TCR)
